# Assay results: paper PMC6474823 (Molecular cell, 2019)
# B1: SH4^SNAP WT (residues 1-18 of Src fused to the N-terminus of SNAP-tag through a LPETG linker) (domain or fragment, human)
# chain: MGSNKSKPKDASQRRRSLLPETG
# Tests used:
# [1] = target: Src^CD WT (catalytic domain of Src, residues 261-536) (human, UniProt P12931 261-536); assay: pull-down
# [2] = target: Src^FL WT (full-length Src, residues 1-536, non-phosphorylated, lacking an N-terminal myristoyl group) (human, UniProt P12931 1-536); assay: pull-down
binder,measurement,setting,value
B1,binding result,[1],binds
same,binding result,[2],binds
